The labels stand for the following.
B1: Protein PML (Homo sapiens), P29590-1 (parent)
chain: MEPAPARSPRPQQDPARPQEPTMPPPETPSEGRQPSPSPSPTERAPASEEEFQFLRCQQCQAEAKCPKLLPCLHTLCSGCLEASGMQCPICQAPWPLGADTPALDNVFFESLQRRLSVYRQIVDAQAVCTRCKESADFWCFECEQLLCAKCFEAHQWFLKHEARPLAELRNQSVREFLDGTRKTNNIFCSNPNHRTPTLTSIYCRGCSKPLCCSCALLDSSHSELKCDISAEIQQRQEELDAMTQALQEQDSAFGAVHAQMHAAVGQLGRARAETEELIRERVRQVVAHVRAQERELLEAVDARYQRDYEEMASRLGRLDAVLQRIRTGSALVQRMKCYASDQEVLDMHGFLRQALCRLRQEEPQSLQAAVRTDGFDEFKVRLQDLSSCITQGKDAAVSKKASPEAASTPRDPIDVDLPEEAERVKAQVQALGLAEAQPMAVVQSVPGAHPVPVYAFSIKGPSYGEDVSNTTTAQKRKCSQTQCPRKVIKMESEEGKEARLARSSPEQPRPSTSKAVSPPHLDGPPSPRSPVIGSEVFLPNSNHVASGAGEAEERVVVISSSEDSDAENSSSRELDDSSSESSDLQLEGPSTLRVLDENLADPQAEDRPLVFFDLKIDNETQKISQLAAVNRESKFRVVIQPEAFFSIYSKAVSLEVGLQHFLSFLSSMRRPILACYKLWGPGLPNFFRALEDINRLWEFQEAISGFLAALPLIRERVPGASSFKLKNLAQTYLARNMSERSAMAAVLAMRDLCRLLEVSPGPQLAQHVYPFSSLQCFASLQPLVQAAVLPRAEARLLALHNVSFMELLSAHRRDRQGGLKKYSRYLSLQTTTLPPAQPAFNLQALGTYFEGLLEGPALARAEGVSTPLAGRGLAERASQQS
partner: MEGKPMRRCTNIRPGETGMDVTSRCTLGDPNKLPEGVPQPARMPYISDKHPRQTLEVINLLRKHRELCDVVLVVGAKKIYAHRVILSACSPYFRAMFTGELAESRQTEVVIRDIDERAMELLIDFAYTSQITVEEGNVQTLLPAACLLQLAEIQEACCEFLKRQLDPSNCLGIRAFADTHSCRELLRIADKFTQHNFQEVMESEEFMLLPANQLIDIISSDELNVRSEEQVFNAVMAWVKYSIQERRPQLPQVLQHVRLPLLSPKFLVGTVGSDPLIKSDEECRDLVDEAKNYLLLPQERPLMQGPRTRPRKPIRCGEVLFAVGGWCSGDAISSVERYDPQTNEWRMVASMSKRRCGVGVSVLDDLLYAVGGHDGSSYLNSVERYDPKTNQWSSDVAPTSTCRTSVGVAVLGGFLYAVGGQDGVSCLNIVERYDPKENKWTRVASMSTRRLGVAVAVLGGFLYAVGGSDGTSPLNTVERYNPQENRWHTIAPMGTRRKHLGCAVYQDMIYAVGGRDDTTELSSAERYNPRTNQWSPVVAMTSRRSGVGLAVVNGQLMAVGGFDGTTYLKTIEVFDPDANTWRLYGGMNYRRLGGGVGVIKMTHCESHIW

The first experiment covers variants of B1. The following applies: with klh20_human KLHL20, Q9Y2M5.
For S518A, the “effect of a mutation on the interaction” value is recorded as “disrupting interaction”.

The next experiment covers variants of B1. The following applies: with klh20_human KLHL20, Q9Y2M5. The source holds these as a separate data set.
As for S518A, the “effect of a mutation on the interaction” value is reported as “disrupting interaction”.

(Values after IntAct's records for PubMed 21840486.)
